In patent US20240025993A1, “CD19 BINDING MOLECULES AND USES THEREOF” (NOVARTIS AG, priority 2020, published 2024):

What was measured:
[1] = Differential scanning calorimetry, melting temperature of Fc modified anti-CD3 antibodies (Example 35); type: physicochemical; details: DSC, 1 mg/ml in PBS pH 7.4, anti-CD3 IgG1 Fc variants
Experimental: Calorimetric measurements were carried out on a differential scanning micro calorimeter (Nano DSC, TA instruments). The cell volume was 0.5 ml and the heating rate was 1° C./min. All proteins were used at a concentration of 1 mg/m in PBS (pH 7.4). The molar heat capacity of each protein was estimated by comparison with duplicate samples containing identical buffer from which the protein had been omitted. The partial molar heat capacities and melting curves were analyzed using standard procedure. Thermograms were baseline corrected and concentration normalized.

human FcγR1A = human FcγR1A (Homo sapiens, UniProt P12314); experiment: SPR binding of Fc modified anti-CD3 IgG1 antibodies (Example 34); details: anti-CD3 IgG1 antibody immobilized
human FcγR1A, sequence (P12314 16-374): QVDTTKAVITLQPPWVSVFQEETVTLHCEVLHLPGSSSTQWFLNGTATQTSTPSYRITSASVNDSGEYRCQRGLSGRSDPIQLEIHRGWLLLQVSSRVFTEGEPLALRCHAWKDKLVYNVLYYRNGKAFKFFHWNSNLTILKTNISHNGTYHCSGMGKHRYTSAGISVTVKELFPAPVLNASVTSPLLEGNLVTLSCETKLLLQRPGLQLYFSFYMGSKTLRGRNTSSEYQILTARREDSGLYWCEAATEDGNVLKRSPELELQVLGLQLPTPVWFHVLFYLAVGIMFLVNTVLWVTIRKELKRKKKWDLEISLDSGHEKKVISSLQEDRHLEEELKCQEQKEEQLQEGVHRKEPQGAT
Experimental: Surface plasmon resonance (SPR) experiments were performed to analyze the interaction of human activating receptors FcγR1A, FcγR3A (V158) and human C1q with IgG1 WT and antibody-Fc variants. Binding kinetics and their relative binding affinities were explored. The binding affinity is an important characteristic of an interaction between an antibody and an antigen. The equilibrium dissociation constant (KD) defines how strong the interaction is and therefore how much antibody-antigen complex is formed at equilibrium.
The knowledge of the antibody characteristics is not only essential during selection of the best therapeutic antibody candidate, but also important to understand the in vivo behavior and potentially predict cellular immune responses. […] Binding to human C1q was evaluated. […] SPR measurements were measured on a Biacore T200 (GE-Healthcare Life Sciences) controlled by Biacore T200 control software version 2.0.1. […]
The antibodies were covalently immobilized on a CM5 sensor chip whereas Fc gamma receptors or human C1q served as analytes in solution (FIG. 38). […] Zero concentration samples (blank runs) were measured for both methods to allow double-referencing during data evaluation.
Data were evaluated using the Biacore T200 evaluation software. […] In addition, the maximum response reached during the experiment was monitored. […]

[2] = Aggregation propensity (% HMW) by analytical SEC of IgG1 anti-CD3 antibody and Fc variants (Example 35); type: physicochemical; details: PBS pH 7.4, anti-CD3 antibodies
Experimental: Size exclusion chromatography measurements were performed to evaluate the aggregation propensity (% HMW) of IgG1 antibody and Fc modified derivatives. The produced and purified anti CD3 antibodies were applied to an analytical size exclusion chromatography column (SEC 200, GE Healthcare), equilibrated with PBS buffer pH 7.4.

[3] = test system: Jurkat NFAT luciferized (JNL) cells with THP-1 cells; experiment: Anti-CD3 NFAT signalling assay, JNL + THP-1 cells (Example 36); type: cell-based, human; details: THP-1 cells preincubated with IFNg (100 u/mL, 48 hours)
Experimental: Jurkat reporter gene assay (RGA) for the nuclear factor of activated T-cells (NFAT) pathway was performed using Jurkat NFAT luciferized (JNL) cells and THP-1 cells (ATCC, TIB202). THP-1 cells express FcγRI, FcγRII, and FcγRIII. Cells were co-incubated for 6 hours at 37° C., 5% CO2 at a 5:1 effector to tumor ratio with each sample at the various concentrations depicted. An equal volume of ONE-Glo™ reagent (Promega, E6110) was added to the culture volume. Plate was shaken for 2 minutes, then incubated for an additional 8 minutes protected from light. For JNL+ THP+IFNg experiment, THP-1 cells were pre-treated with 100 u/mL IFNg for 48 hours at 37° C., 5% CO2 before co-culture. IFNg stimulation increases FcγRI expression. Luciferase activity was quantitated on the EnVision plate reader (PerkinElmer). Data was analyzed and fit to a 5 parameter-logistic curve using GraphPad Prism.

Maximum response at 100 nM hFcgammaRIA (RU) (human FcγR1A): 16 RU
B1: GADAPA-IgG1: anti-CD3 IgG1 with G237A/D265A/P329A (antibody)
heavy: EVQLVESGGGLVQPGGSLKLSCAASGFTFNTYAMNWVRQASGKGLEWVGRIRSKYNNYATYYADSVKDRFTISRDDSKSTLYLQMNSLKTEDTAVYYCVRHGNFGNSYVSWFAYWGQGTLVTVSSASTKGPSVFPLAPSSKSTSGGTAALGCLVKDYFPEPVTVSWNSGALTSGVHTFPAVLQSSGLYSLSSVVTVPSSSLGTQTYICNVNHKPSNTKVDKRVEPKSCDKTHTCPPCPAPELLGAPSVFLFPPKPKDTLMISRTPEVTCVVVAVSHEDPEVKFNWYVDGVEVHNAKTKPREEQYNSTYRVVSVLTVLHQDWLNGKEYKCKVSNKALAAPIEKTISKAKGQPREPQVYTLPPSRDELTKNQVSLTCLVKGFYPSDIAVEWESNGQPENNYKTTPPVLDSDGSFFLYSKLTVDKSRWQQGNVFSCSVMHEALHNHYTQKSLSLSPGK
light: QAVVTQEPSLTVSPGGTVTLTCRSSTGAVTTSNYANWVQQKPGQAPRGLIGGTNKRAPWTPARFSGSLLGDKAALTLSGAQPEDEAEYFCALWYSNLWVFGGGTKLTVLGQPKAAPSVTLFPPSSEELQANKATLVCLISDFYPGAVTVAWKADSSPVKAGVETTTPSKQSNNKYAASSYLSLTPEQWKSHRSYSCQVTHEGSTVEKTVAPTECS
Melting temperature (Tm) of CH2 domain [1]: 65 °C
(%) higher molecular weight [2]: 8.0%
NFAT activity (T-cell activation) [3]: some activity remaining
